Ends that are not written are not given here.

By Kd is commonly meant a measure of binding affinity in units of concentration. Read a low Kd as tighter binding.

In assay [1] the target is full-length human LRH-1 A324R (human, UniProt O00482 1-541, A324R). Put plainly: fluorescence polarisation.
In assay [2] the target is full-length human LRH-1 S148R (human, UniProt O00482 1-541, S148R). Put plainly: fluorescence polarisation. (In fluorescence polarisation assays a small probe gives low polarisation when free and higher when bound to something large.)
Sequence of full-length human LRH-1 S148R (O00482 whole entry S148R): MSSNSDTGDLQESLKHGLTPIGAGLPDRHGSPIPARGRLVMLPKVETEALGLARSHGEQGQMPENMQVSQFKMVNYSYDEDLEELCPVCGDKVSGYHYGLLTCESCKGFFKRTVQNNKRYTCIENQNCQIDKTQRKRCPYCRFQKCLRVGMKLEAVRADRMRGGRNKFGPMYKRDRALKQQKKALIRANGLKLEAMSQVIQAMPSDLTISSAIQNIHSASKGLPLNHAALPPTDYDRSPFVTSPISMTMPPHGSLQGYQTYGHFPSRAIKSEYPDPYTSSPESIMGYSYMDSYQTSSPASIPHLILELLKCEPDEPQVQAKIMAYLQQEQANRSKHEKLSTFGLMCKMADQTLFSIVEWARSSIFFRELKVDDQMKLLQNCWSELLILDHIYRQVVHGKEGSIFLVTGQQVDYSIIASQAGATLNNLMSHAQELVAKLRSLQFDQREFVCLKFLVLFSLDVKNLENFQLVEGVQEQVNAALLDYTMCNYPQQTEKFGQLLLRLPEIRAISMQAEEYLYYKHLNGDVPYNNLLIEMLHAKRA
For assay [3], the target named is full-length human LRH-1 R174D/D314R (human, UniProt O00482 1-541, R174D | D314R). Description: fluorescence polarisation.
Sequence of full-length human LRH-1 R174D/D314R (O00482 whole entry R174D/D314R): as the sequence (O00482 whole entry S148R) above, with R148S, R174D, D314R counted along it
The target of assay [4] is T1, full-length human LRH-1 (Liver Receptor Homolog-1; NR5A2), wild type (human, UniProt O00482 1-541). Put plainly: fluorescence polarisation.
T1 sequence (O00482 whole entry): as the sequence (O00482 whole entry S148R) above, with R148S counted along it
Assay [5] has as its target full-length human LRH-1 D314R (human, UniProt O00482 1-541, D314R). Put plainly: fluorescence polarisation.
In assay [6] the target is T1, full-length human LRH-1 (Liver Receptor …). Description: cross-linking.

Sequence of full-length human LRH-1 A324R (O00482 whole entry A324R): as the sequence (O00482 whole entry S148R) above, with R148S, A324R counted along it
Sequence of full-length human LRH-1 D314R (O00482 whole entry D314R): as the sequence (O00482 whole entry S148R) above, with R148S, D314R counted along it

B1: N-terminally FAM-labeled PGC1α co-regulator peptide (740-EEPSLLKKLLLAPA-753) (peptide)
peptide: {FAM}-EEPSLLKKLLLAPA
With B1, the Kd in assay [1] is 1510 nM; in assay [2], 7030 nM; in assay [3] it was 1720 nM; in assay [4] it was 1360 nM; in assay [5], 2280 nM.

B2: PGC1α co-activator peptide (740-EEPSLLKKLLLAPA-753), unlabeled (peptide)
peptide: EEPSLLKKLLLAPA
In the case of B2, in assay [6], the binding result is “binds”.

(Values after paper PMC7347456 (Structure (London, England : 1993), 2020).)
